Molecular target: the molecule itself
Experiment: crystal structure

B1: LnmK (Tyr62Phe) (enzyme, Streptomyces atroolivaceus S-140, UniProt Q8GGP1 2-319, looked up)
chain: SITSSLDVRPEIKQAVTVRPGMCGPGSLFVGQLGDWTWETVSAQCDTDVFAARDASGNPTFLAFYYFRVRGGRELHPGSLTFGDRLTVTSGCYDQGTESVLTLHRIDRAGSDDAQRPLDLHEFYERPRDGSLYVENFNRWVTRSAPGSNEDLVKSSPPGFRNDGLPQLPAAYSPRAVYREARTAHTFRALDEPGFRLLPDTVEVEHPVDIVRDVNGVGLLYFASYFSMVDKAALALWRRLGRSDRAFLRRVVVDQQMCYLGNADLDSVLTLGARVRVSTETPGEELVDVVISDRDSGRVIAVSTLHTQHDAHDPKGEA
B1: binds.
